Publication PMC8897410

Assays:
FimT Lp [1] = biological target: T1, FimT Lp (Legionella pneumophila, UniProt Q5ZVL2 38-162); experiment: ITC; 50 mM Tris-HCl pH 7.2, 50 mM NaCl; […]; ITC 30 C; MST 50-150 mM NaCl, 0.05% Tween-20, […]; conditions: protein: recombinant; tags: His6-SUMO cleaved; blunt
FimT Lp [2] = biological target: T1, FimT Lp; experiment: NMR titration; 50 mM NaCl; 50 mM Tris-HCl pH 7.2, 50 mM NaCl; […]; ITC 30 C; MST 50-150 mM NaCl, 0.05% Tween-20, […]; conditions: protein: recombinant; tags: His6-SUMO cleaved; blunt
FimT Lp [3] = biological target: T1, FimT Lp; experiment: ITC; 50 mM NaCl, 30 C; N 1.09; 50 mM Tris-HCl pH 7.2, 50 mM NaCl; […]; ITC 30 C; MST 50-150 mM NaCl, 0.05% Tween-20, […]; conditions: protein: recombinant; tags: His6-SUMO cleaved
FimT Xc = FimT Xc (Xanthomonas campestris pv. campestris …, UniProt Q8P7X0 39-183); experiment: EMSA; affinity same order of magnitude as FimT Lp; 50 mM Tris-HCl pH 7.2, 50 mM NaCl; […]; ITC 30 C; MST 50-150 mM NaCl, 0.05% Tween-20, […]; conditions: protein: recombinant; tags: His6-SUMO cleaved; blunt
FimT Pa = FimT Pa (Pseudomonas aeruginosa PAO1, UniProt Q9HVN0 36-169); experiment: as above; conditions: protein: recombinant; tags: His6-SUMO cleaved; blunt
FimU Lp = FimU Lp (Legionella pneumophila, UniProt Q5ZXU9 96-235); experiment: EMSA; up to 100 uM protein; 50 mM Tris-HCl pH 7.2, 50 mM NaCl; […]; ITC 30 C; MST 50-150 mM NaCl, 0.05% Tween-20, […]; conditions: protein: recombinant; tags: His6-SUMO cleaved; blunt
PilA2 Lp = PilA2 Lp (Legionella pneumophila, UniProt Q5ZU92 34-140); experiment: as above; conditions: protein: recombinant; tags: His6 cleaved (PreScission); blunt
PilA1 Lp = PilA1 Lp (Legionella pneumophila, UniProt Q5ZU93 35-142); experiment: as above; conditions: protein: recombinant; tags: His6 cleaved (PreScission); blunt
FimT Lp [4] = biological target: T1, FimT Lp; experiment: EMSA; Kd stated as low uM range; 50 mM Tris-HCl pH 7.2, 50 mM NaCl; […]; ITC 30 C; MST 50-150 mM NaCl, 0.05% Tween-20, […]; conditions: protein: recombinant; tags: His6-SUMO cleaved; blunt
FimT Lp [5] = biological target: T1, FimT Lp; experiment: MST/TRIC; 50 mM NaCl; 50 mM Tris-HCl pH 7.2, 50 mM NaCl; […]; ITC 30 C; MST 50-150 mM NaCl, 0.05% Tween-20, […]; conditions: protein: recombinant; tags: His6-SUMO cleaved; label: 5'-FAM on one strand; blunt
FimT Lp [6] = biological target: T1, FimT Lp; experiment: EMSA; 50 mM Tris-HCl pH 7.2, 50 mM NaCl; […]; ITC 30 C; MST 50-150 mM NaCl, 0.05% Tween-20, […]; conditions: protein: recombinant; tags: His6-SUMO cleaved

B1: 12mer dsDNA (dsDNA)
DNA 1: GTTCGCAACGAA
DNA 2: TTCGTTGCGAAC
Kd (FimT Lp [1]): 2.8 ± 0.2 µM
Kd (FimT Lp [2]): ~8.1 µM

GTTCGCAACGAA (ssDNA) [12mer ssDNA]
Kd (FimT Lp [3]): 7 ± 0.3 µM

B2: 30mer dsDNA (dsDNA)
DNA 1: TTAAATAGGCTTGGCAGGGTTAGGGTAGGG
DNA 2: CCCTACCCTAACCCTGCCAAGCCTATTTAA
binding result (FimT Xc): binds
binding result (FimT Pa): binds
binding result (FimU Lp): no binding
binding result (PilA2 Lp): no binding
binding result (PilA1 Lp): no binding
binding result (FimT Lp [4]): binds

B3: FAM-12mer dsDNA (dsDNA)
DNA 1: GTTCGCAACGAA
DNA 2: TTCGTTGCGAAC
Kd (FimT Lp [5]): 6.3 ± 0.9 µM

TTAAATAGGCTTGGCAGGGTTAGGGTAGGG (ssDNA) [30mer ssDNA]
binding result (FimT Lp [6]): binds
